In the RNAGym collection of RNA variant scans (doi:10.1093/molbev/msab373):

B1: Azoarcus group I ribozyme (parent)
chain: GUGCCUUGCGCCGGGAAACCACGCAAGGGAUGGUGUCAAAUUCGGCGAAACCUAAGCGCCCGCCCGGGCGUAUGGCAACGCCGAGCCAAGCUUCGGCGCCUGCGCCGAUGAAGGUGUAGAGACUAGACGGCACCCACCUAAGGCAAACGCUAUGGUGAAGGCAUAGUCCAGGGAGUGGCGAAAGUCACACAAACCGG

Variants of: B1
Assay: reverse-splicing fitness (ratio to wild type); higher = more active; in vitro selection; Mg2+ level not given
Procedure, shortened: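 An in vitro group I ribozyme library with randomized positions was T7-transcribed and gel-purified. In triplicate, 10 pmol RNA in EPPS pH 7.5 was reacted with 50 pmoles of a 30-nt RNA substrate for 1 h at 37 °C across several added MgCl2 levels (1–48 mM), then stopped with EDTA. Products were reverse transcribed from a substrate-complementary primer, PCR-amplified and sequenced (HiSeq 4000). Fitness is a variant's read proportion after selection over that before, normalised to wild type.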

Variant | reverse-splicing fitness
A111U A145G C150U C169U U176A | 0.025
A111U A145G C150U C169U U176C | 0.0314
A111U A145G C150U C169U U176G | 0.00652
A111U C150U U176G | 0.251
A111U C150U U176A | 0.6
A111U C150U U176C | 0.638
A111U A145G C150G C169A U176C | 0.0121
A111U A145G C150G C169A U176G | 0.00707
A111U A145G C150G C169A U176A | 0.0118
A111U A145G C150G C169U | 0.0181
A111U A145G C150G C169G | 0.011
A111U A145G C150G C169A | 0.0104
A111U A145C C150A C169U U176A | 0.0157
A111U A145C C150A C169U U176G | 0.00676
A111U A145C C150A C169U U176C | 0.0105
A111U C150A C169U U176A | 0.0201
A111U C150A C169U U176G | 0.00721
A111U C150A C169U U176C | 0.0188
A111U C150G C169U U176C | 0.0145
A111U C150G C169U U176G | 0.00634
A111U C150G C169U U176A | 0.00776
A111U A145C C150U C169A U176G | 0.00703
A111U A145C C150U C169A U176A | 0.0117
A111U A145C C150U C169A U176C | 0.00769

Variant | reverse-splicing fitness
A111U A145G C150G C169G U176A | 0.00998
A111U A145G C150G C169G U176C | 0.0116
A111U A145G C150G C169G U176G | 0.00597
A111U A120U C169G | 0.0555
A111U A120U C169U | 0.0747
A111U A120U C169A | 0.00533
A111U A145C C150G C169A U176G | 0.00612
A111U A145C C150G C169A U176C | 0.00643
A111U A145C C150G C169A U176A | 0.0076
A111U A145G C150A C169A U176C | 0.0233
A111U A145G C150A C169A U176A | 0.0172
A111U A145G C150A C169A U176G | 0.0068
A111U A145G C169A U176A | 0.0211
A111U A145G C169A U176C | 0.0305
A111U A145G C169A U176G | 0.00593
A111U C150U C169U U176C | 0.0237
A111U C150U C169U U176A | 0.0262
A111U C150U C169U U176G | 0.00705
A111U A145C U176G | 0.329
A111U A145C U176C | 0.706
A111U A145C U176A | 0.757
A111U A145U C150A C169A U176A | 0.0131
A111U A145U C150A C169A U176G | 0.00582
A111U A145U C150A C169A U176C | 0.00995

Variant | reverse-splicing fitness
A111U A145C C150G C169G U176G | 0.00549
A111U A145C C150G C169G U176C | 0.00846
A111U A145C C150G C169G U176A | 0.00774
A111U A145C C150A C169A U176G | 0.00617
A111U A145C C150A C169A U176A | 0.0128
A111U A145C C150A C169A U176C | 0.00656
A111U C150U C169A U176A | 0.015
A111U C150U C169A U176G | 0.00669
A111U C150U C169A U176C | 0.0138
A111U A145C C150U C169G U176C | 0.0135
A111U A145C C150U C169G U176A | 0.0212
A111U A145C C150U C169G U176G | 0.00741
A111U A145U C150A C169U U176G | 0.00626
A111U A145U C150A C169U U176A | 0.0151
A111U A145U C150A C169U U176C | 0.0162
A111U A145C C150U C169U U176C | 0.0152
A111U A145C C150U C169U U176G | 0.00571
A111U A145C C150U C169U U176A | 0.0173
A111U A120U C150G C169G U176C | 0.00285
A111U A120U C150G C169G U176A | 0.00371
A111U A120U C150G C169G U176G | 0.00237
A111U A145G C169U U176G | 0.00581
A111U A145G C169U U176A | 0.0265
A111U A145G C169U U176C | 0.0327

Variant | reverse-splicing fitness
A111U A120U C150U C169A U176G | 0.00214
A111U A120U C150U C169A U176C | 0.00279
A111U A120U C150U C169A U176A | 0.00464
A111U A145U C150G C169U U176G | 0.00601
A111U A145U C150G C169U U176C | 0.0129
A111U A145U C150G C169U U176A | 0.00897
A111U A145U C169A U176C | 0.0115
A111U A145U C169A U176A | 0.0113
A111U A145U C169A U176G | 0.00631
A120C A145C C150A C169A U176G | 0.00372
A120C A145C C150A C169A U176A | 0.00897
A120C A145C C150A C169A U176C | 0.00472
A111U A145U C150G C169A U176C | 0.0101
A111U A145U C150G C169A U176A | 0.0103
A111U A145U C150G C169A U176G | 0.00591
A111U A120U C150G C169U U176G | 0.0029
A111U A120U C150G C169U U176C | 0.00454
A111U A120U C150G C169U U176A | 0.00272
A111U A145U C150A C169G | 0.0109
A111U A145U C150A C169U | 0.018
A111U A145U C150A C169A | 0.01
A111U C169A U176C | 0.0214
A111U C169A U176G | 0.00592
A111U C169A U176A | 0.0172

Variant | reverse-splicing fitness
A111U A145U C150G C169U | 0.0168
A111U A145U C150G C169G | 0.011
A111U A145U C150G C169A | 0.0102
A120C A145C C150A C169G U176A | 0.0166
A120C A145C C150A C169G U176C | 0.00769
A120C A145C C150A C169G U176G | 0.00492
A111U A145G C150U U176A | 0.591
A111U A145G C150U U176G | 0.22
A111U A145G C150U U176C | 0.692
A111U A145G C150G U176G | 0.0223
A111U A145G C150G U176C | 0.171
A111U A145G C150G U176A | 0.0997
A111U A120U C150U C169A | 0.00484
A111U A120U C150U C169G | 0.0274
A111U A120U C150U C169U | 0.0369
A111U A145U C150U U176G | 0.266
A111U A145U C150U U176A | 0.632
A111U A145U C150U U176C | 0.641
A120C | 0.9
A111U A145U C150U C169G U176A | 0.016
A111U A145U C150U C169G U176C | 0.0192
A111U A145U C150U C169G U176G | 0.00643
A111U A145U C150U C169G | 0.0415
A111U A145U C150U C169U | 0.0705

Variant | reverse-splicing fitness
A111U A145U C150U C169A | 0.0209
A111U A145G C150A C169G | 0.0147
A111U A145G C150A C169A | 0.0132
A111U A145G C150A C169U | 0.0213
A111U A145G C150A C169U U176C | 0.0191
A111U A145G C150A C169U U176A | 0.0173
A111U A145G C150A C169U U176G | 0.00686
A111U A145G C150U C169G | 0.0498
A111U A145G C150U C169U | 0.0923
A111U A145G C150U C169A | 0.025
A111U A145G C150U C169A U176C | 0.017
A111U A145G C150U C169A U176G | 0.00732
A111U A145G C150U C169A U176A | 0.0155
A111U C169G U176G | 0.00596
A111U C169G U176C | 0.0333
A111U C169G U176A | 0.02
A111U A120U C150A | 0.0595
A111U A120U C150U | 0.374
A111U A120U C150G | 0.045
A111U A120U C150G U176G | 0.00286
A111U A120U C150G U176C | 0.0189
A111U A120U C150G U176A | 0.00718
A111U A145U C150U C169A U176A | 0.0144
A111U A145U C150U C169A U176G | 0.00694

Variant | reverse-splicing fitness
A111U A145U C150U C169A U176C | 0.0104
A111U A120U C150A C169G | 0.00631
A111U A120U C150A C169A | 0.00436
A111U A120U C150A C169U | 0.00846
A111U A145C C169U | 0.108
A111U A145C C169G | 0.0589
A111U A145C C169A | 0.027
A111U A145G | 0.921
A111U A145U | 0.924
A111U A145C | 0.974
A120C A145C | 0.783
A111U A145G C169G | 0.0699
A111U A145G C169A | 0.0306
A111U A145G C169U | 0.111
A111U A120U C169U U176C | 0.0202
A111U A120U C169U U176A | 0.0126
A111U A120U C169U U176G | 0.00332
A111U C150G C169G U176C | 0.00465
A111U C150G C169G U176A | 0.00681
A111U C150G C169G U176G | 0.00515
A111U C150A C169A U176G | 0.00646
A111U C150A C169A U176A | 0.0182
A111U C150A C169A U176C | 0.0168
